{
  "source": "patent US20240424125A1",
  "about": "(Zymeworks, published 2024)",
  "binders": {"B1": {"name": "v30394 (antibody, human IgG1, kappa)", "heavy 1": "EVQLLESGGGLVQPGGSLRLSCAVSGFSLSSYGVSWVRQAPGKGLEWIGAVNSGGSAYYADWAKGRSTISRDNSKNTVYLQMNSLRAEDTAVYYCARSGSGYPMDYLAIWGQGTLVTVSSASTKGPSVFPLAPSSKSTSGGTAALGCLVKDYFPEPVTVSWNSGALTSGVHTFPAVLQSSGLYSLSSVVTVPSSSLGTQTYICNVNHKPSNTKVDKKVEPKSCDKTHTCPPCPAPELLGGPSVFLFPPKPKDTLMISRTPEVTCVVVDVSHEDPEVKFNWYVDGVEVHNAKTKPREEQYNSTYRVVSVLTVLHQDWLNGKEYKCKVSNKALPAPIEKTISKAKGQPREPQVYVYPPSRDELTKNQVSLTCLVKGFYPSDIAVEWESNGQPENNYKTTPPVLDSDGSFALVSKLTVDKSRWQQGNVFSCSVMHEALHNHYTQKSLSLSPG", "heavy 2": "not shown", "light": "DYQMTQSPSSVSASVGDRVTITCRASQSIGDWLAWYQQKPGKAPKLLIYEASTLASGVPSRFSGSGSGTDFTLTISSVQPEDAATYYCQQGYGRSNVDNIFGGGTKVEVKRTVAAPSVFIFPPSDEQLKSGTASVVCLLNNFYPREAKVQWKVDNALQSGNSQESVTEQDSKDSTYSLSSTLTLSKADYEKHKVYACEVTHQGLSSPVTKSFNRGEC", "notes": "Humanized IgG1/kappa, HetFc; also called 4H4L"}, "B2": {"name": "v31426 (antibody, human IgG1, kappa)", "heavy": "not shown", "light": "B1 light", "notes": "Humanized IgG1/kappa, HomoFc; also called 3gH4L"}, "B3": {"name": "v36675 (antibody, human IgG1, kappa)", "heavy": "not shown", "light": "B1 light", "notes": "Same paratopes as v30384 but HomoFc instead of HetFc; also called humanized variant v36675"}, "B4": {"name": "v35305 (antibody, human IgG1, kappa, V domains shown)", "VH": "EVQLLESGGGLVQPGGSLRLSCAVSGFSLSLYGVSWVRQAPGKGLEWIGAVNSGGSAYYADSVKGRSTISRDNSKNTVYLQMNSLRAEDTAVYYCARSGSGYPMDYLAIWGQGTLVTVSS", "VL": "DYQMTQSPSSVSASVGDRVTITCRASQSIWYWLAWYQQKPGKAPKLLIYEASTLASGVPSRFSGSGSGTDFTLTISSVQPEDAATYYCQQGYGRSNVDNIFGGGTKVEVKR"}, "B5": {"name": "v35348 (antibody, human IgG1, kappa, V domains shown)", "VH": "B4 VH with V63F, L107H, A108P", "VL": "B4 VL with W30G, Y31D, S95W, N96H, V97I, D98L"}},
  "key": {"[1]": {"biological_target": "T1, recombinant His-tagged human FRα (ACROBiosystems) (human, UniProt P15328 25-233)", "T1 construct": "also called hFRα; hFRα antigen; not shown: His tag", "T1 sequence (P15328 25-233 limits assumed)": "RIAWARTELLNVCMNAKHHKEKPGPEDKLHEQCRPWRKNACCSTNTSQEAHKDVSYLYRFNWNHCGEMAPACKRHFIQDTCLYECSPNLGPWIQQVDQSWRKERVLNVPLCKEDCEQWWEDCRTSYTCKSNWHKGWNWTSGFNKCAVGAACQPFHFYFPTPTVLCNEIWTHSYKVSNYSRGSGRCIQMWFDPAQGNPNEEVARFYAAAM", "assay": "BLI (Octet RED96); end of the range tied to v30394 by Table 8.1", "experimental": "(§1) The assay buffer used was KB buffer (kinetics buffer, composed of PBS pH 7.4, 0.1% BSA, 0.02% Tween 20, 0.05% sodium azide) supplemented with 0.06% Tween 20 and in some instances also with 1% BSA. The experiment was conducted at 30° C. with a shake speed of 1000 rpm.\n(§2) Data analysis was performed using Data Analysis Software 9.0 (ForteBio, Fremont CA). The reference-subtracted binding curves were globally fitted to the 1:1 interaction model to generate the binding kinetic parameters kₒₙ, koff, and the dissociation constant KD."}, "[2]": {"biological_target": "T1, recombinant His-tagged human FRα …", "assay": "BLI (Octet RED96): antibody on anti-human IgG Fc capture biosensor, His-tagged hFRα as analyte, 1:1 global fit, mean of n=2", "experimental": "as §1, §2"}, "[3]": {"biological_target": "T1, recombinant His-tagged human FRα …", "assay": "BLI (Octet RED96); end of the range tied to v31426 by Table 8.1", "experimental": "as §1, §2"}, "FCGR2A": {"biological_target": "T2, FCGR2A (human, UniProt P12318)", "T2 construct": "overexpressed on reverse-transfected HEK293 cells, fixed; One of the FcgR receptors that the text names only as a group", "T2 sequence (receptor chain, looked up)": "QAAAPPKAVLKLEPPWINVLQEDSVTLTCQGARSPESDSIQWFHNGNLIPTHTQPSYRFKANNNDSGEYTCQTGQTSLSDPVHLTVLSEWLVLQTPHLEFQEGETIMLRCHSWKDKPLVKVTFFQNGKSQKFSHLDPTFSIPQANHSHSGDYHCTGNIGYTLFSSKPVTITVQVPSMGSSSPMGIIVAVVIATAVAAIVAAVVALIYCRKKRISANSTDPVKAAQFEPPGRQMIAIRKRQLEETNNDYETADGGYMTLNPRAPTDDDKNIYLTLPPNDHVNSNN", "assay": "Retrogenix cell microarray, fixed cell confirmation screen, HEK293 cells overexpressing the protein, v36675 at 20 µg/mL, detection with AF647 anti-hIgG H+L; the text calls FcgR signals Fc-domain mediated", "experimental": "(§3) Fluorescent images were analysed and quantitated (for transfection) using ImageQuant™ software (Version 8.2; GE Healthcare, Chicago, IL). A protein hit was defined as a duplicate spot showing an increased signal compared to background levels and was identified by visual inspection using the images gridded on the ImageQuant™ software. Hits were classified as strong, medium, weak or very weak by visual inspection by two experienced scientists based on the intensity of the duplicate spots."}, "FCGR1A": {"biological_target": "T3, FCGR1A (human, UniProt P12314)", "T3 construct": "overexpressed on reverse-transfected HEK293 cells, fixed; One of the FcgR receptors that the text names only as a group", "T3 sequence (P12314 16-374 limits assumed)": "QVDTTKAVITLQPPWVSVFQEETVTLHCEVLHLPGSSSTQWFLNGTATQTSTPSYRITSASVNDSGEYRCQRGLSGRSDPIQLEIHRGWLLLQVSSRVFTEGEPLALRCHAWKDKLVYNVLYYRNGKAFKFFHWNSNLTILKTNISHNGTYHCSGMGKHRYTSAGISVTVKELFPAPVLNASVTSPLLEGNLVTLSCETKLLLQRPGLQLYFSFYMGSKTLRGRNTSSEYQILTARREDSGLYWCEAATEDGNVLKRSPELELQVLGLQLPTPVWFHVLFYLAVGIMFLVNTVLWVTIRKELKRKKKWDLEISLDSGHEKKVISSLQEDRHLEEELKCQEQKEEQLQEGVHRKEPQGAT", "assay": "Retrogenix cell microarray, fixed cell confirmation screen, HEK293 cells overexpressing the protein, v36675 at 20 µg/mL, detection with AF647 anti-hIgG H+L; the text calls FcgR signals Fc-domain mediated", "experimental": "as §3"}, "[4]": {"biological_target": "T1, recombinant His-tagged human FRα …", "assay": "BLI (Octet RED96) as in Example 8: antibody captured, His-tagged hFRα as analyte, mean of n=2", "experimental": "as §1, §2"}, "[5]": {"biological_target": "T1, recombinant His-tagged human FRα …", "assay": "BLI (Octet RED96); end of the range tied to v35305 by Table 20.1", "experimental": "as §1, §2"}, "[6]": {"biological_target": "T1, recombinant His-tagged human FRα …", "assay": "BLI (Octet RED96); end of the range tied to v35348 by Table 20.1", "experimental": "as §1, §2"}},
  "note": "Changes are numbered by the printed parent chain.",
  "data": [
    {"binder": "B1", "values": [
      {"measurement": "fold reduced affinity compared to the parental chimera antibody v23924", "setting": "[1]", "result": 2, "unit": "fold"},
      {"measurement": "Kd", "setting": "[2]", "result": 0.063, "unit": "µM"}
    ]},
    {"binder": "B2", "values": [
      {"measurement": "Kd", "setting": "[2]", "result": 0.21, "unit": "µM"},
      {"measurement": "fold reduced affinity compared to the parental chimera antibody v23924", "setting": "[3]", "result": 8, "unit": "fold"}
    ]},
    {"binder": "B3", "values": [
      {"measurement": "binding result", "setting": "FCGR2A", "result": "binds"},
      {"measurement": "binding result", "setting": "FCGR1A", "result": "binds"}
    ]},
    {"binder": "B4", "values": [
      {"measurement": "Kd", "setting": "[4]", "result": 0.0108, "unit": "µM"},
      {"measurement": "fold improvement of affinity over the parental humanized antibody v30384", "setting": "[5]", "result": 12, "unit": "fold"}
    ]},
    {"binder": "B5", "values": [
      {"measurement": "fold improvement of affinity over the parental humanized antibody v30384", "setting": "[6]", "result": 58, "unit": "fold"},
      {"measurement": "Kd", "setting": "[4]", "result": 0.0022, "unit": "µM"}
    ]}
  ]
}
